# “And” between values parts separate entries of the source, which are not always exact repeats. Identical values can stand only once.
# B1: Major Basic Protein (MBP) purified from human eosinophils (protein, UniProt P13727 106-222, looked up)
# chain: TCRYLLVRSLQTFSQAWFTCRRCYRGNLVSIHNFNINYRIQCSVSALNQGQVWIGGRITGSGRCRRFQWVDGSRWNFAYWAAHQPWSRGGHCVALCTRGGHWRRAHCLRRLPFICSY
# Biological target: human heparanase, active 50 kDa form (human) (UniProt Q9Y251)
# Test: cell-based or functional assay
# UniProt Q9Y251, sequence (Q9Y251 158-543 limits assumed, form in doubt): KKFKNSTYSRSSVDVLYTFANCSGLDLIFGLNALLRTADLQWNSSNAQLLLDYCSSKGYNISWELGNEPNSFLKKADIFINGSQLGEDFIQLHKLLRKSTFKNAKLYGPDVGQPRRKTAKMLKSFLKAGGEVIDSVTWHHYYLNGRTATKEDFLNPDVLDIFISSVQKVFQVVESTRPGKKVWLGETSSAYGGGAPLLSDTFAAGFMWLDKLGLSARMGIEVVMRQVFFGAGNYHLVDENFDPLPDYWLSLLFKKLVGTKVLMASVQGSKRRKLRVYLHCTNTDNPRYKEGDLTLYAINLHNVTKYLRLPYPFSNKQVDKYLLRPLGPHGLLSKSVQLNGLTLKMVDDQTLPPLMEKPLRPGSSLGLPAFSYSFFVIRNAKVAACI
molecule,measurement,value
poly-L-arginine (peptide),inhibition of heparanase activity (35S-labeled ECM degradation),5 ng/mL and 13 ng/mL
myelin basic protein,inhibition of heparanase activity (35S-labeled ECM degradation),20 ng/mL
B1,"inhibition of heparanase activity (release of HS degradation fragments from 35S-labeled ECM, gel filtration)",80 nM and 200 nM
same,"inhibition of recombinant heparanase activity by eosinophil lysates (cellular MBP), 35S-labeled ECM degradation (fold excess of MBP over heparanase)",2.5
